The numbers were not newly measured in article PMC4549621, which cites them from elsewhere.

This series has as its target amyloid-beta monomer Abeta (Homo sapiens) (UniProt P05067).

Regarding gantenerumab, the equilibrium dissociation constant (Kd) – broadly, the concentration at which binding is half-saturated – was 600 pM.
